Molecular target: Mouse myosin 5a HMM (m5-HMM), heavy chain (mouse) (UniProt Q99104)
Experiment: photo-bleaching step counting by TIRF microscopy; single molecules bound on a cover glass surface after exchange with Alexa488-CaM at 5:1 (Alexa488-CaM: myosin); step-wise photo-bleaching counted

UniProt Q99104, sequence (Q99104 whole entry): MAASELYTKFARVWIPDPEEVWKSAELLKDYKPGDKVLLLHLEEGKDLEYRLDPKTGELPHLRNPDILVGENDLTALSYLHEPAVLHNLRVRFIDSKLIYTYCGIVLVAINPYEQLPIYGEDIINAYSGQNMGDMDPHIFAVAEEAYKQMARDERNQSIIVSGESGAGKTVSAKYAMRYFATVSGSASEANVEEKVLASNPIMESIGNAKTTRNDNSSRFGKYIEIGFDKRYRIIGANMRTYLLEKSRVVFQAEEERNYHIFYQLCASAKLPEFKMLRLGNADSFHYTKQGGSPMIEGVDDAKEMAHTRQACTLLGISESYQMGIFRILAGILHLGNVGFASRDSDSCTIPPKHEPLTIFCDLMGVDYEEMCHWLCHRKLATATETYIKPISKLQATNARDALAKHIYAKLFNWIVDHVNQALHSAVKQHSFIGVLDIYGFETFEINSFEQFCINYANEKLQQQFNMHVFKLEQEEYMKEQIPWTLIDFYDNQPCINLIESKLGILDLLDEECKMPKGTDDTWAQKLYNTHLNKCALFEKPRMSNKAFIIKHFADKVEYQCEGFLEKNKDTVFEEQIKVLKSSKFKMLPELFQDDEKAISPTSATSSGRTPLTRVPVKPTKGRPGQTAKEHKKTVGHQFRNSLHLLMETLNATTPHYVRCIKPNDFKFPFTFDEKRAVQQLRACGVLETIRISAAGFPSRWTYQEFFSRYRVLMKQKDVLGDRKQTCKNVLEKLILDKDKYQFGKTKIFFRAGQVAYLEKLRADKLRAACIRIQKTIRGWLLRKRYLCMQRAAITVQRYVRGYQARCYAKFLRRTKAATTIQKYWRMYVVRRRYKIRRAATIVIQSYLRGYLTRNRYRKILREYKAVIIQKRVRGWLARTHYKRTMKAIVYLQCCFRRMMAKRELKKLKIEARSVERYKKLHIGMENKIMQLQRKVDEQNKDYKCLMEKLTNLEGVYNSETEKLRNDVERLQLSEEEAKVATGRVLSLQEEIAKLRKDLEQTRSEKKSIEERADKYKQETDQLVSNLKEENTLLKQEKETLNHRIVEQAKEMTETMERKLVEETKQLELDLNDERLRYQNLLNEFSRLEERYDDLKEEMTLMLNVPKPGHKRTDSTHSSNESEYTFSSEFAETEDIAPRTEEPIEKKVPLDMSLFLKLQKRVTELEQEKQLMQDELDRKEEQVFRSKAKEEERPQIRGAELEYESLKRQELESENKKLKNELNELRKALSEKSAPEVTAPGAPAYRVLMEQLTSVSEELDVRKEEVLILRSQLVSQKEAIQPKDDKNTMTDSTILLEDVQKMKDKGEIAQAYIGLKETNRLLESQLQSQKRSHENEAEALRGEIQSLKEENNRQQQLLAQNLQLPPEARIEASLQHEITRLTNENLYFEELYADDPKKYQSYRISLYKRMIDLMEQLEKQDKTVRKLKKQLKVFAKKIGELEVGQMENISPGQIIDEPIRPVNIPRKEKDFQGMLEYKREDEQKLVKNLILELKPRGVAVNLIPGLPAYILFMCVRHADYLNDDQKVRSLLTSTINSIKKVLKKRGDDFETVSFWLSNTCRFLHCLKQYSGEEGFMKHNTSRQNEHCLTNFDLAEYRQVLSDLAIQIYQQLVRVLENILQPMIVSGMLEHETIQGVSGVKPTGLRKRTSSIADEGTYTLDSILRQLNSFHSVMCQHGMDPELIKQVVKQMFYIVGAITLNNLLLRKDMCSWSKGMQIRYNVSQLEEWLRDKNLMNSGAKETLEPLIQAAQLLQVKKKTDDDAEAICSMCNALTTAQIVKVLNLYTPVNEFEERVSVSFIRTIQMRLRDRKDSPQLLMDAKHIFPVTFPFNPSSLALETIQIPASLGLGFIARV

Row | Substance | Alexa488-CaM molecules exchanged into one myosin molecule | stoichiometry N
1 | Alexa Fluor 488-labeled bovine calmodulin (from UniProt P62157 1-149) (natural protein) | 2 | –
2 | Mouse myosin 5a HMM (m5-HMM), heavy chain (from UniProt Q99104 1-1853) (domain or fragment) | – | 2

Source: PMC3777900
